Experiments:
[1] = biological target: T1, human DNA polymerase δ complex (PolD1-4) (human, UniProt P28340 1-1107; P49005 1-469; Q15054 1-466; Q9HCU8 1-107)
[2] = biological target: T1, human DNA polymerase δ complex (PolD1-4); assay: cell-based or functional assay
[3] = biological target: T2, human Pol δ sub-unit POLD3, purified individually (human, UniProt Q15054 1-466); assay: cell-based or functional assay
T2 sequence (looked up): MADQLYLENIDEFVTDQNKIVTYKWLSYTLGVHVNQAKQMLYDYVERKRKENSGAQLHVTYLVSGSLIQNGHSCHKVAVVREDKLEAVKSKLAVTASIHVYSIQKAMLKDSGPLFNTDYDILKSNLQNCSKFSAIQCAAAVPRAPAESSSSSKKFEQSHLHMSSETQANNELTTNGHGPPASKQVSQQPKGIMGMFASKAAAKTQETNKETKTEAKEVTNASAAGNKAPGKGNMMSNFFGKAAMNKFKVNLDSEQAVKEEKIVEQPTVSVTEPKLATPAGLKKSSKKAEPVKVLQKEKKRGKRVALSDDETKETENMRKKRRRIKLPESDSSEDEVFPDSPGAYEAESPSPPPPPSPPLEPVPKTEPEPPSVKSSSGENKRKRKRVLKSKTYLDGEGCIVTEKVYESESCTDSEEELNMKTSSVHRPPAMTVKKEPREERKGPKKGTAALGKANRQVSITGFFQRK

HelQ = biological target: T3, HelQ (human, UniProt Q8TDG4 1-1101); assay: EMSA; 50 mM EDTA; HelQ 100-400 nM, DNA 15 nM; EMSA: 20 mM Tris-HCl pH 7.5, 100 mg/ml BSA (so in the source), 7% glycerol, 25 mM DTT, 50 mM EDTA, 25 nM DNA (Methods; 15 nM in legend), 37 C 10 min, 5% TBE gel; conditions: protein: recombinant; label: Cy5 end label; fork 1:2-25 paired with 2:27-50; 3' tail 25 nt (strand 1), 5' tail 26 nt (strand 2), 1 nt 5' overhang on strand 1
T3 sequence: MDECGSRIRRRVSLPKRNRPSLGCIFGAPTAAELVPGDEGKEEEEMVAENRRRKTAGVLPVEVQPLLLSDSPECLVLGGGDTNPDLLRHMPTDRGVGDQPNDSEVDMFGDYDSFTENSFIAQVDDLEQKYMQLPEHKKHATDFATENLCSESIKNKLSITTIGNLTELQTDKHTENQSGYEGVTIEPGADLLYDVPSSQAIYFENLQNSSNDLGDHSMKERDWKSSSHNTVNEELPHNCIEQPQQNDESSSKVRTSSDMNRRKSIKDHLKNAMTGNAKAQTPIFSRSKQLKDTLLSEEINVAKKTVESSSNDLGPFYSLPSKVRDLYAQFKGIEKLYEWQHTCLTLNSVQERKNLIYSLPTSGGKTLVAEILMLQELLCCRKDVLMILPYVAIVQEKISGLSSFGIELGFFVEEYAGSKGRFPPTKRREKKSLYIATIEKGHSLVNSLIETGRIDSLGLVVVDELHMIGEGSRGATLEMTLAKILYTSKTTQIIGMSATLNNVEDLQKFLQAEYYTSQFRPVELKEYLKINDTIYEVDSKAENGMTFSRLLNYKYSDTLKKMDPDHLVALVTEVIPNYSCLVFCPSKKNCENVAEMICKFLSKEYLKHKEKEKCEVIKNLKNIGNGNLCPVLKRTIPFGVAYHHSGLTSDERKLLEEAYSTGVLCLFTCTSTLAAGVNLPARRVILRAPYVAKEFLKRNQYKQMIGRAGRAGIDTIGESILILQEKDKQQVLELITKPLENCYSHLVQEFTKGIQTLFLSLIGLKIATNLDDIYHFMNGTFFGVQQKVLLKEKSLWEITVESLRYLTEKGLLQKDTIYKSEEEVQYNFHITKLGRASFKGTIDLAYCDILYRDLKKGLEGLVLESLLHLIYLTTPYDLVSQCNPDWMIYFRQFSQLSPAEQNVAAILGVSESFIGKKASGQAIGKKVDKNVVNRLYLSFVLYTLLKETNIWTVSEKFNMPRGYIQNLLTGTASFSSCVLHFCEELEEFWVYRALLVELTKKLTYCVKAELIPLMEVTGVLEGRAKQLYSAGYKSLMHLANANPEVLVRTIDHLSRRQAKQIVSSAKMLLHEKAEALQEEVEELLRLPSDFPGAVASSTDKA

T1 sequence (P28340 whole entry, stated change not applied, chain 1 of 3): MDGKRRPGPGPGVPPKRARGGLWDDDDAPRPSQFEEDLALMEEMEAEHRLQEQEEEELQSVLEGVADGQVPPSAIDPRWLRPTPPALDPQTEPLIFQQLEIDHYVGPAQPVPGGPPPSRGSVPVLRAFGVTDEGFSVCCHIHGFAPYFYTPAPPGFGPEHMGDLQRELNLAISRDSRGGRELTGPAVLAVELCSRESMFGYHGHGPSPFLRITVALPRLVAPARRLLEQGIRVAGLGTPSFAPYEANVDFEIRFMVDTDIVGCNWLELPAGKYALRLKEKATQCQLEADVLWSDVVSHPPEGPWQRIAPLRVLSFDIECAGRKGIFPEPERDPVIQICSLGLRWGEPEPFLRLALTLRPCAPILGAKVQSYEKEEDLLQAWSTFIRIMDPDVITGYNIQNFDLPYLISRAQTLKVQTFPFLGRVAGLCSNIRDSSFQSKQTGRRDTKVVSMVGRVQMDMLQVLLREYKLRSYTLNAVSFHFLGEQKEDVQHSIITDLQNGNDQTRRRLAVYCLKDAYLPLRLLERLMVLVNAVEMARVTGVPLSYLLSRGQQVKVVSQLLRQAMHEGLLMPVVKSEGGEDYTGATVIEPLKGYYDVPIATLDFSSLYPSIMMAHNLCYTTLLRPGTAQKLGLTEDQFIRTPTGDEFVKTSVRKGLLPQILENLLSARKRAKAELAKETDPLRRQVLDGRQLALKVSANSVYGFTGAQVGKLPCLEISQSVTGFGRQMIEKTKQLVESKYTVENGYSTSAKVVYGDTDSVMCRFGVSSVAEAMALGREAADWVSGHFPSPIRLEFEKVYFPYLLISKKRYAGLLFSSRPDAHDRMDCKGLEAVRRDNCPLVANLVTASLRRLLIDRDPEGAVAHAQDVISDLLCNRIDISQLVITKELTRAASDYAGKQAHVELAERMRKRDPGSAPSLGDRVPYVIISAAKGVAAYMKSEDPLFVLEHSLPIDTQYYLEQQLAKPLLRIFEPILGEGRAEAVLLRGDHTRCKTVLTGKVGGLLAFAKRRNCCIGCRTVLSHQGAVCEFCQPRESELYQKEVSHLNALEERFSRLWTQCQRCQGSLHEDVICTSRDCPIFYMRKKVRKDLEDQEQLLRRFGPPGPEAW
T1 sequence (P49005 whole entry, stated change not applied, chain 2 of 3): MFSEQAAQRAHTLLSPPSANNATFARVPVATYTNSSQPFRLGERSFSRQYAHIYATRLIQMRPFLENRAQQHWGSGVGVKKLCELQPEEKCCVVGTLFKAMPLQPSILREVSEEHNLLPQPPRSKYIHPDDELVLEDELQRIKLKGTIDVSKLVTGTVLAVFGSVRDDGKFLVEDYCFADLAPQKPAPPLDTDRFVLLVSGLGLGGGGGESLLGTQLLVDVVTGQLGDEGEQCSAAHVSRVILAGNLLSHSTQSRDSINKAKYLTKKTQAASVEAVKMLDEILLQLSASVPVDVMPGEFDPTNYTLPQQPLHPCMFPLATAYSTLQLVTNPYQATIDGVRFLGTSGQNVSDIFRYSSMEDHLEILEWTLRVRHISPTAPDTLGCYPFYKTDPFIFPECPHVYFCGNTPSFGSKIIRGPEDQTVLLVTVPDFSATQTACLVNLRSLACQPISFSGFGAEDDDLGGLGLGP
T1 sequence (Q9HCU8 whole entry, stated change not applied, chain 4 of 3): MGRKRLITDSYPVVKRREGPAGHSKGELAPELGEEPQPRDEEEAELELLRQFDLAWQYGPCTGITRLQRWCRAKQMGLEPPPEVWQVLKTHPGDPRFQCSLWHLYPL

B1: N-HelQ R51G/R52G/R53G (domain or fragment)
chain: MDECGSRIRRRVSLPKRNRPSLGCIFGAPTAAELVPGDEGKEEEEMVAENGGGKTAGVLPVEVQPLLLSDSPECLVLGGGDTNPDLLRHMPTDRGVGDQPNDSEVDMFGDYDSFTENSFIAQVDDLEQKYMQLPEHKKHATDFATENLCSESIKNKLSITTIGNLTELQTDKHTENQSGYEGVTIEPGADLLYDVPSSQAIYFENLQNSSNDLGDHSMKERDWKSSSHNTVNEELPHNCIE
end point of DNA synthesis by Pol δ (40 nM) pre-mixed with N-HelQ^RGx3 (5 nM), percent of DNA as product (68.8% uninhibited) [1]: 12.7%

B2: Human HelQ (enzyme, UniProt Q8TDG4 1-1101, looked up)
chain: T3 sequence
FRET ratio of DNA single-strand annealing by HelQ (125 nM) with Pol δ complex (150 nM) added; 0.51 without Pol δ [2]: 0.76 FRET ratio
FRET efficiency of DNA single-strand annealing by HelQ (125 nM) with POLD3 alone (150 nM) added; 0.50 without POLD3, 0.07 with POLD3 alone [3]: 0.87 FRET ratio

B3: forked DNA (MW12/MW14) (dsDNA)
DNA 1: GTCGGATCCTCTAGACAGCTCCATGATCACTGGCACTGGTAGAATTCGGC
DNA 2: CAACGTCATAGACGATTACATTGCTACATGGAGCTGTCTAGAGGATCCGA
binding result (HelQ): binds

Source: paper PMC9976902, “Interaction of human HelQ with DNA polymerase delta halts DNA synthesis and stimulates DNA single-strand annealing” (Nucleic Acids Research, 2022)
